From US20120328616A1 (Amgen, published 2012) come the findings set out here.

Assay [1] has as its target T1, human FGFR1c (human, UniProt P11362 22-822).
T1 construct: Full length (GenBank NP-075598), expressed on transfected 293T cells; also called huFGFR1c; FGFR1c alone
Briefly: flow cytometry, transfected HEK293T; mock-transfected cells 648.
Experimental: (§1) This solution was then added dropwise to 10 million HEK293T cells in 10 ml of media. 24 hours following transfection, the cells were washed and 50,000 cells were stained with each primary antibody, 50 μl of unpurified hybridoma supernatant was diluted 1:2 and used for staining cells. After a one hour incubation at 4° c., the cells were washed and an anti-Human Fc-specific secondary was added. Stained cells were then analyzed on a flow cytometer.

For assay [2], the target named is T2, human FGFR1c/human β-Klotho complex (FGF21 receptor) (human, UniProt P11362 22-822).
T2 construct: Both full-length proteins co-expressed on cells (HEK293T, CHO, L6); also called HuFGFR1c/Hu β-Klotho; huFGF21R
The description is as above.
Experimental: as §1

In assay [3] the target is T3, cynomologous monkey FGFR1c/cynomologous monkey β-Klotho (co-transfected) (cynomologous monkey).
T3 construct: whole, on cells; also called Cyno FGFR1c/Cyno β-Klotho
The description is as above.
Experimental: as §1

Assay [4] concerns the target T1, human FGFR1c. The assay can be described thus: flow cytometry, transfected HEK293T; mock-transfected cells 688. On the technique in general: In flow cytometry, cells or beads pass a laser one at a time.
Experimental: as §1
Assay [5] addresses T2, human FGFR1c/human β-Klotho complex …. Described as above.
Experimental: as §1
The target in assay [6] is T3, cynomologous monkey FGFR1c/cynomologous …. The assay is described as above.
Experimental: as §1
Assay [7] concerns the target T1, human FGFR1c. Briefly: flow cytometry, transfected HEK293T; mock-transfected cells 695.
Experimental: as §1
In assay [8] the target is T1, human FGFR1c. Briefly: flow cytometry, transfected HEK293T; mock-transfected cells 705.
Experimental: as §1
In assay [9] the target is T2, human FGFR1c/human β-Klotho complex …. Described as above.
Experimental: as §1
Assay [10] addresses T3, cynomologous monkey FGFR1c/cynomologous …. The assay is described as above.
Experimental: as §1

B1: 49G3.3 (antibody, V domains shown)
VH: QVTLKESGPVLVKPTETLTLTCTVSGFSLSNPRMGVSWIRQPPGKALEWLTHIFSNDEKSYSTSLKSRLTISKDTSKSQVVLSMTNMDPVDTATYYCVRVDTLNYHYYGMDVWGQGTTVTVSS
VL: DIQMTQSPSSLSASIGDRVTITCQASQGISNYLNWYQQKPGKAPKLLIYDASNLETGVPSRFSGSGSGTDFTFTISSLQPEDIATYYCHQYDDLPLTFGGGTKVEIRR
Consider B1, for which the GeoMean came out at 706 with human FGFR1c [1], 17900 in assay [2] and 25900 in assay [3].

B2: 67C10.1 (antibody, V domains shown)
VH: EVQLVQSGAEVKKPGESLKISCQGSGYSFSSYWIGWVRQMPGKGLEWMGIIYPGDSDTRYSPSFQGQVTISADKSINTAYLQWSSLKASDTAIYYCARRASRGYRYGLAFAIWGQGTMVTVSS
VL: DFVMTQTPLSLPVTPGEPASISCRSSQSLLNSDDGNTYLDWYLQKPGQSPQLLIYTLSYRASGVPDRFSGSGSGTDFTLKISRVEAEDVGVYYCMQRIEFPITFGQGTRLEIKR
On to B2, for which the GeoMean with human FGFR1c [4] was found to be 780; in assay [5] it was 18900; in [6], 4060.

B3: 66G2.1 (antibody, V domains shown)
VH: QVQLVESGGGVVQPGRSLRLSCAASGFTFSSYGMHWVRQAPGKGLEWVAGISYDGSNKNYADSVKGRITISRDNPKNTLYLQMNSLRAEDTAVYYCATTVTKEDYYYYGMDVWGQGTTVTVSS
VL: DIQMTQSPSSLSASVGDRVTITCRASQGIRNDLGWYQQKPGKAPKRLIYAASNLQSGVPSRFSGSGSGTKFTLTINSLQPEDFATYYCLQLNGYPLTFGGGTKVEIKR
As for B3, the GeoMean in the assay with human FGFR1c [7] amounted to 780.

B4: 65C3.1 (antibody, V domains shown)
VH: QVQLQESGPGLVKPSETLSLTCTVSGGSISSYYWSWIRQPPGKGLEWIGYIYYTGSTNYNPSLKSRVTISVDTSKNQFSLKLSSVTAADTAVYYCAREYYYGSGSYYPWGQGTLVTVSS
VL: EMVMTQSPATLSVSPGERATLSCRASQSVSSQLAWYQEKPGRAPRLLIYGASNRAIDIPARLSGSGSGTEFTLTISSLQSEDFAVYYCQQYNNWPWTFGQGTKVEFKR
Turning to B4, the GeoMean worked out at 719 with human FGFR1c [8], 18800 in assay [9] and 24600 in assay [10].
